Here are results for 5 molecules from patent EP3831849A1 (LamKap Bio beta AG, dated 2021).

Like-named read-outs stand apart in the source and are kept apart here.

The target of assay [1] is T1, biotinylated recombinant human CEACAM5 (human, UniProt P06731 35-685, biotin on the C-terminal Avitag).
T1 construct: also called CD66e; not shown: C-terminal Avitag plus hexa-histidine tag, human Fc or mouse Fc
T1 sequence: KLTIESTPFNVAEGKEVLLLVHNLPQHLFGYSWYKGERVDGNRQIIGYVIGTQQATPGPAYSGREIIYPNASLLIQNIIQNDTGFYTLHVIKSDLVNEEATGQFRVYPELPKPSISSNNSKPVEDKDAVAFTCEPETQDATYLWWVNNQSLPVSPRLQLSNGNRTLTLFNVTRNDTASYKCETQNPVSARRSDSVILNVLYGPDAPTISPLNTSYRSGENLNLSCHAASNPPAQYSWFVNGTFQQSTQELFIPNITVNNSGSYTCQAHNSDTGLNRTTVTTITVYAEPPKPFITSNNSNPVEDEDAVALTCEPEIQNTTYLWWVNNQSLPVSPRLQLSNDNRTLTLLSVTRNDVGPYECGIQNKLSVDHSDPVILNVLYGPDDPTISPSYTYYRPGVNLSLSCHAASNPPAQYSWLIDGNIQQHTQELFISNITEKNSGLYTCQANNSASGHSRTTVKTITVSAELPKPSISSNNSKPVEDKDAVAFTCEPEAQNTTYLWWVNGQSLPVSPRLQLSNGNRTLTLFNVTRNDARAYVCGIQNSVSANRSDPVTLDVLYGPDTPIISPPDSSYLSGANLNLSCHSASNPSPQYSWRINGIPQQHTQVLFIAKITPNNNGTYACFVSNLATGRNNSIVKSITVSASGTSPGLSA
As to the kind of experiment: reference mAb in the competition ELISA on biotinylated human CEACAM5.

Assay [2] has as its target T1, biotinylated recombinant human CEACAM5. As to the kind of experiment: ELISA; biotinylated recombinant protein on streptavidin plate; bivalent mAb titrated.
For assay [3], the target named is T2, recombinant cynomolgus monkey CEACAM5 (cynomolgus monkey (macaca fascicularis)).
T2 construct: also called cyno CEACAM5; cynomolgus CEACAM5
The assay is described as above.

Assay [4] deals with T1, biotinylated recombinant human CEACAM5. The assay is described as above. The source holds these as a separate data set.
Assay [5] concerns the target T3, human CEACAM5 expressed on MKN-45 wt cells (human, UniProt P06731 35-702).
T3 sequence: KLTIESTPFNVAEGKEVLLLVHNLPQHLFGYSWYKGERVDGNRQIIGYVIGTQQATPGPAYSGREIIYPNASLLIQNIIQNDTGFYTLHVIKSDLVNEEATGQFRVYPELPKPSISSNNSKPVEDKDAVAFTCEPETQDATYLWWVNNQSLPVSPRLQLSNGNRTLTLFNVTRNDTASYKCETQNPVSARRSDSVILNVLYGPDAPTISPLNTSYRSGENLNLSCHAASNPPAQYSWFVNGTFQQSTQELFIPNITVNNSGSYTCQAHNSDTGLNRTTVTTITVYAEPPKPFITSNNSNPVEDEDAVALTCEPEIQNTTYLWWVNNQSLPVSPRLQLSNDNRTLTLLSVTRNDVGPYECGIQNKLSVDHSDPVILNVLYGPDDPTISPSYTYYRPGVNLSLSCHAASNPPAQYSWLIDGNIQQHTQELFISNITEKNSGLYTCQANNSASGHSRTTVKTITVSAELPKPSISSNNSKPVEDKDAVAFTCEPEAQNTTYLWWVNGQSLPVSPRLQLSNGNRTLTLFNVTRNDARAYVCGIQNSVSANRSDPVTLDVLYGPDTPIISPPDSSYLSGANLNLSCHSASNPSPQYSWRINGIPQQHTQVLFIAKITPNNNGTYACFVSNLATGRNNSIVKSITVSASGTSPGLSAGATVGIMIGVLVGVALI
As to the kind of experiment: cell-based or functional assay.

B1: SAR (antibody, V domains shown)
VH: EVQLVESGGGLVQPGGSLRLSCAASGFVFSSYDMSWVRQAPGKGLEWVSYISSGGGITYYADSVKGRFTISRDNSKNTLYLQMNSLRAEDTAVYYCAAHYFGSSGPFAYWGQGTLVTVSS
VL: DIQMTQSPSSLSASVGDRVTITCRASENIFSYLAWYQQKPGKAPKLLIYNTRTLQSGVPSRFSGSGSGTDFTLTISSLQPEDFATYYCQHHYGTPFTFGQGTKLEIK
notes: also called mAb derived from Mab2_VLg5VHg2
Regarding B1, the binding result in assay [1] was “binds”.

B2: AC50 (antibody, human IgG1, lambda, V domains shown)
VH: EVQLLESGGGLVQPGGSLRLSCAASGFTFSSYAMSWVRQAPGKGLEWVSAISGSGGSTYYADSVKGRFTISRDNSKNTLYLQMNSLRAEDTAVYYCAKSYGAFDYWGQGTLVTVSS
VL: QSALTQPASVSGSPGQSITISCTGTSSDVYEFRLVSWYQQHPGKAPKLMIYFDSLRPSGVSNRFSGSKSGNTASLTISGLQAEDEADYYCSSWDKFGYAFNSVFGGGTKLTVLG
notes: Bivalent IgG1 mAb; 6 carries the IgG1 Fc; also called CEACAM5/CEACAM6 mAb AC50
As for B2, the EC50 in assay [2] turned out to be 0.09 nM; in assay [3], 0.05 nM; in assay [4] it was 0.09 nM.

B3: SM3E (antibody, V domains shown)
VH: QVKLEQSGAEVVKPGASVKLSCKASGFNIKDSYMHWLRQGPGQRLEWIGWIDPENGDTEYAPKFQGKATFTTDTSANTAYLGLSSLRPEDTAVYYCNEGTPTGPYYFDYWGQGTLVTVSS
VL: ENVLTQSPSSMSVSVGDRVNIACSASSSVPYMHWLQQKPGKSPKLLIYLTSNLASGVPSRFSGSGSGTDYSLTISSVQPEDAATYYCQQRSSYPLTFGGGTKLEIK
notes: also called anti-CEACAM5 antibody SM3E
As to B3, in assay [1], the binding result is on record as “binds”.

B4: K2AC50 (bispecific antibody, human IgG1, kappa, lambda)
heavy: not shown
light 1: QSALTQPASVSGSPGQSITISCTGTSSDVYEFRLVSWYQQHPGKAPKLMIYFDSLRPSGVSNRFSGSKSGNTASLTISGLQAEDEADYYCSSWDKFGYAFNSVFGGGTKLTVLGQPKAAPSVTLFPPSSEELQANKATLVCLISDFYPGAVTVAWKADSSPVKAGVETTTPSKQSNNKYAASSYLSLTPEQWKSHRSYSCQVTHEGSTVEKTVAPTECS
light 2: not shown
B4: the “EC50 (µg/mL) of phagocytosis” value in assay [5] is 0.07 µg/mL.

B5: AC49 (antibody, human IgG1, lambda, V domains shown)
VH: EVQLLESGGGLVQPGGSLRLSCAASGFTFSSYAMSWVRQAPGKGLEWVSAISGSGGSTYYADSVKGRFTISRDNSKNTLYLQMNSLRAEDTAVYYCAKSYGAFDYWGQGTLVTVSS
VL: QSVLTQPPSVSAAPGQKVTISCSGSSSNIFDSGVSWYQQLPGTAPKLLIYNHNERPSGIPDRFSGSKSGTSATLGITGLQTGDEADYYCGTWDFPPSRFVFGGGTKLTVLG
notes: Bivalent IgG1 mAb; 6 carries the IgG1 Fc; also called CEACAM5/CEACAM6 mAb AC49
As for B5, the EC50 in assay [2] was determined as 0.1 nM; in assay [3], 0.03 nM; in assay [4], 0.1 nM.
